Assay results taken from patent JPH11332563A (dated 1999).

Tests used:
[1] = target: T1, ヒト可溶性CD4 (human soluble CD4 prepared in Example 2, C-terminal FLAG-tag, from COS7 cells) (human, UniProt P01730 26-396); experiment: SPR (BIAcore 2000), soluble CD4 amine-coupled on CM5, antibody (50 ug/ml) as analyte
T1 construct: extracellular domain; no cleavage site is stated; also called ヒトCD4; CD4分子

[2] = target: T1, ヒト可溶性CD4 (human soluble CD4 prepared in …); experiment: SPR (BIAcore 2000), antibody amine-coupled on CM5, soluble CD4 as analyte

Row | Kd [1] [nM] | koff [1] [s⁻¹] | kon [1] [M⁻¹ s⁻¹] | Kd [2] [nM] | fold higher binding affinity than 13B8.2抗体 (comparison of KD) [2] [fold] | koff [2] [s⁻¹] | kon [2] [M⁻¹ s⁻¹] | Binder
1 | 0.808 | 5.33e-06 | 6600 | 1.71 | ~4.4 | 0.000231 | 135000 | 4H5 抗体 (monoclonal antibody produced by Mouse-Mouse hybridoma 4H5, FERM P-16807) (antibody, IgG1, V domains shown, also called 4H5 antibody; 抗ヒトCD4抗体 4H5) VH: QVQLQQSGPELVKPGASVKMSCKASGYTFTDYVINWLNQRTGQGLEWIGEIYPGSGSAYYNEMFKGKATLTADKSSNTAYMQLSSLTSEDSAVYFCARRGTGTGFAYWGRGTLVTVSA VL: not shown
2 | 1.24 | 2.92e-05 | 23600 |  |  |  |  | キメラ 4H5抗体 (ヒトマウスキメラ抗CD4抗体, expressed from pG14H5 in COS7 cells) (antibody, V domains shown) VH: QVQLQQSGPELVKPGASVKMSCKASGYTFTDYVINWLNQRTGQGLEWIGEIYPGSGSAYYNEMFKGKATLTADKSSNTAYMQLSSLTSEDSAVYFCARRGTGTGFAYWGRGTLVTVSA VL: not shown
